Key:
HCV proteins = biological target: T1, HCV proteins (Hepatitis C virus genotype 1b, UniProt Q9WMX2); test: Validation by Y2H pairwise matrices; type: binding; details: validation of interaction with HCV protein NS3;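 also: yeast two-hybrid pairwise tests of interactions first found in Y2H screens of HCV bait proteins against human cDNA libraries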
T1 construct: expressed in transfected cells

[1] = biological target: T2, HCV ORFs (Gal4-DB fusions) (Hepatitis C virus genotype 1b, UniProt Q9WMX2); type: binding, HCV genotype 1b, isolate con1; details: HCV protein NS3 as bait; human protein as prey
T2 construct: expressed in transfected cells; host or cells: Saccharomyces cerevisiae MAV203 (IMAP1) / AH109 (IMAP2)

[2] = tested on: HCV ORFs (Gal4-DB fusions); type: binding, HCV genotype 1b, isolate con1; details: human protein listed by gene symbol; the value names the HCV protein it interacts with
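For IMAP Y2H IMAP1 (number of IST) in this document: yeast two-hybrid screens using HCV genotype 1b proteins fused to Gal4-DB as baits against prey cDNA libraries from human spleen and foetal brain, IMAP1 via transformation and IMAP2 via mating.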
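For IMAP Y2H IMAP2 (number of IST) in this document: yeast two-hybrid screens using HCV genotype 1b proteins fused to Gal4-DB as baits against prey cDNA libraries from human spleen and foetal brain, IMAP1 via transformation and IMAP2 via mating.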
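For Interaction with viral protein in this document: yeast two-hybrid screens using HCV genotype 1b proteins fused to Gal4-DB as baits against prey cDNA libraries from human spleen and foetal brain, IMAP1 via transformation and IMAP2 via mating.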

T2 sequence (Q9WMX2 1027-1657): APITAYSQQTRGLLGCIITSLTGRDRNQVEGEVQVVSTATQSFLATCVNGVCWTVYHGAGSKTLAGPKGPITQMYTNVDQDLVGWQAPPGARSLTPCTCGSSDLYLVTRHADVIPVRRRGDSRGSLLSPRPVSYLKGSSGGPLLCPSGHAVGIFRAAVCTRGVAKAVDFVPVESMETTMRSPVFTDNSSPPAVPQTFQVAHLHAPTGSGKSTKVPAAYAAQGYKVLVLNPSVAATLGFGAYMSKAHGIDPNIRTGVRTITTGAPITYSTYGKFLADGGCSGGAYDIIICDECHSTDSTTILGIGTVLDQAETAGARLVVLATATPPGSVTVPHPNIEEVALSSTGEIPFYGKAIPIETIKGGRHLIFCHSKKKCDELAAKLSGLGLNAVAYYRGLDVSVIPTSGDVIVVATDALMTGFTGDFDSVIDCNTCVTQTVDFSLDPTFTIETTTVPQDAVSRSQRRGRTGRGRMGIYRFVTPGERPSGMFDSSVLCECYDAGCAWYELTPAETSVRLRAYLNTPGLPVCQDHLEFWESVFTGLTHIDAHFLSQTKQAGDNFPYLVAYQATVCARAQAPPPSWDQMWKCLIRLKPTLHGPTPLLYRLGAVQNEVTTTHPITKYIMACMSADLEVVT
T1 sequence (Q9WMX2 1027-1657): as above

B1: CORO1B (protein, UniProt Q9BR76 1-489, looked up)
Coronin-1B: MSFRKVVRQSKFRHVFGQPVKNDQCYEDIRVSRVTWDSTFCAVNPKFLAVIVEASGGGAFLVLPLSKTGRIDKAYPTVCGHTGPVLDIDWCPHNDEVIASGSEDCTVMVWQIPENGLTSPLTEPVVVLEGHTKRVGIIAWHPTARNVLLSAGCDNVVLIWNVGTAEELYRLDSLHPDLIYNVSWNHNGSLFCSACKDKSVRIIDPRRGTLVAEREKAHEGARPMRAIFLADGKVFTTGFSRMSERQLALWDPENLEEPMALQELDSSNGALLPFYDPDTSVVYVCGKGDSSIRYFEITEEPPYIHFLNTFTSKEPQRGMGSMPKRGLEVSKCEIARFYKLHERKCEPIVMTVPRKSDLFQDDLYPDTAGPEAALEAEEWVSGRDADPILISLREAYVPSKQRDLKISRRNVLSDSRPAMAPGSSHLGAPASTTTAADATPSGSLARAGEAGKLEEVMQELRALRALVKEQGDRICRLEEQLGRMENGDA
Y2H matrices (HCV proteins): + | IMAP Y2H IMAP1 (number of IST) [1]: 8 | Interaction with viral protein [2]: NS3

B2: CCDC66 (protein, UniProt A2RUB6 1-948, looked up)
Coiled-coil domain-containing …: MNLGDGLKLETELLDGKTKLILSPYEHKSKISVKMGNKAKIAKCPLRTKTGHILKSTQDTCIGSEKLLQKKPVGSETSQAKGEKNGMTFSSTKDLCKQCIDKDCLHIQKEISPATPNMQKTRNTVNTSLVGKQKPHKKHITAENMKSSLVCLTQDQLQQILMTVNQGNRSLSLTENGKEAKSQYSLYLNSISNQPKDENIMGLFKKTEMVSSVPAENKSVLNEHQETSKQCEQKIAIENEWKPADIFSTLGERECDRSSLEAKKAQWRKELDEQVALKKKEKEVSEKWNDPWKKSESDKIIWEKHQILDQSRETVLLEHPFSAVKQELQRKWIEELNKQIEDDRQRKIEEKIIYSKGEEHDRWAMHFDSLKSYPGSQSQLFSQSTHKQPEYFCVSPDTQELADVSSVCTPTTGSQVEPSEEEHIAKPIKDVVMANSKKTNFLRSMTALLDPAQIEERDRRRQKQLEHQKAITAQVEEKRRKKQLEEEQRKKEEQEEELRLAQEREEMQKQYEEDILKQKQKEEIMTLKTNELFQTMQRAQELAQRLKQEQRIRELAQKGHDTSRLIKNLGVDTIQMEYNASNISNSRHDSDEISGKMNTYMNSTTSKKDTGVQTDDLNIGIFTNAESHCGSLMERDITNCSSPEISAELIGQFSTKKNKQELTQDKGASLEKENNRCNDQCNQFTRIEKQTKHMKKYPKRPDWNINKPPKRYIPASEKYPKQLQKQREEKKVRRQMELLHLVEKNNPGHLSQNRGISPEIFHSSHQETESKLRWHLVKKEEEPLNIHSFSKERSPSSPVPVVKNRTQQTQNTLHLPLKNSSYERENLISGSNQTELSSGISESSHFIPYVRTNEIYYLDPDAPLSGPSTQDPQYQNSQDCGQKRQLFDSDCVRDPLLNPNMVKNRDRQQAILKGLSELRQGLLQKQKELESSLLPLAENQEESFGSSF
Y2H matrices (HCV proteins): + | IMAP Y2H IMAP1 (number of IST) [1]: 1 | IMAP Y2H IMAP2 (number of IST) [1]: 4 | Interaction with viral protein [2]: NS3

B3: CD5L (protein, UniProt O43866 20-347, looked up)
CD5 antigen-like: SPSGVRLVGGLHRCEGRVEVEQKGQWGTVCDDGWDIKDVAVLCRELGCGAASGTPSGILYEPPAEKEQKVLIQSVSCTGTEDTLAQCEQEEVYDCSHDEDAGASCENPESSFSPVPEGVRLADGPGHCKGRVEVKHQNQWYTVCQTGWSLRAAKVVCRQLGCGRAVLTQKRCNKHAYGRKPIWLSQMSCSGREATLQDCPSGPWGKNTCNHDEDTWVECEDPFDLRLVGGDNLCSGRLEVLHKGVWGSVCDDNWGEKEDQVVCKQLGCGKSLSPSFRDRKCYGPGVGRIWLDNVRCSGEEQSLEQCQHRFWGFHDCTHQEDVAVICSG
Y2H matrices (HCV proteins): + | IMAP Y2H IMAP1 (number of IST) [1]: 1 | IMAP Y2H IMAP2 (number of IST) [1]: 1 | Interaction with viral protein [2]: NS3

B4: CCHCR1 (protein, UniProt Q8TD31 1-782, looked up)
Coiled-coil alpha-helical rod …: MFPPSGSTGLIPPSHFQARPLSTLPRMAPTWLSDIPLVQPPGHQDVSERRLDTQRPQVTMWERDVSSDRQEPGRRGRSWGLEGSQALSQQAEVIVRQLQELRRLEEEVRLLRETSLQQKMRLEAQAMELEALARAEKAGRAEAEGLRAALAGAEVVRKNLEEGSQRELEEVQRLHQEQLSSLTQAHEEALSSLTSKAEGLEKSLSSLETRRAGEAKELAEAQREAELLRKQLSKTQEDLEAQVTLVENLRKYVGEQVPSEVHSQTWELERQKLLETMQHLQEDRDSLHATAELLQVRVQSLTHILALQEEELTRKVQPSDSLEPEFTRKCQSLLNRWREKVFALMVQLKAQELEHSDSVKQLKGQVASLQEKVTSQSQEQAILQRSLQDKAAEVEVERMGAKGLQLELSRAQEARRRWQQQTASAEEQLRLVVNAVSSSQIWLETTMAKVEGAAAQLPSLNNRLSYAVRKVHTIRGLIARKLALAQLRQESCPLPPPVTDVSLELQQLREERNRLDAELQLSARLIQQEVGRAREQGEAERQQLSKVAQQLEQELQQTQESLASLGLQLEVARQGQQESTEEAASLRQELTQQQELYGQALQEKVAEVETRLREQLSDTERRLNEARREHAKAVVSLRQIQRRAAQEKERSQELRRLQEEARKEEGQRLARRLQELERDKNLMLATLQQEGLLSRYKQQRLLTVLPSLLDKKKSVVSSPRPPECSASAPVAAAVPTRESIKGSLSVLLDDLQDLSEAISKEEAVCQGDNLDRCSSSNPQMSS
Y2H matrices (HCV proteins): + | IMAP Y2H IMAP1 (number of IST) [1]: 1 | IMAP Y2H IMAP2 (number of IST) [1]: 2 | Interaction with viral protein [2]: NS3

B5: CTGF (protein, UniProt P29279 27-349, looked up)
CCN family member 2: QNCSGPCRCPDEPAPRCPAGVSLVLDGCGCCRVCAKQLGELCTERDPCDPHKGLFCHFGSPANRKIGVCTAKDGAPCIFGGTVYRSGESFQSSCKYQCTCLDGAVGCMPLCSMDVRLPSPDCPFPRRVKLPGKCCEEWVCDEPKDQTVVGPALAAYRLEDTFGPDPTMIRANCLVQTTEWSACSKTCGMGISTRVTNDNASCRLEKQSRLCMVRPCEADLEENIKKGKKCIRTPKISKPIKFELSGCTSMKTYRAKFCGVCTDGRCCTPHRTTTLPVEFKCPDGEVMKKNMMFIKTCACHYNCPGDNDIFESLYYRKMYGDMA
Y2H matrices (HCV proteins): + | IMAP Y2H IMAP1 (number of IST) [1]: 1 | Interaction with viral protein [2]: NS3

B6: CHPF (protein, UniProt Q8IZ52 1-775, looked up)
Chondroitin sulfate synthase 2: MRASLLLSVLRPAGPVAVGISLGFTLSLLSVTWVEEPCGPGPPQPGDSELPPRGNTNAARRPNSVQPGAEREKPGAGEGAGENWEPRVLPYHPAQPGQAAKKAVRTRYISTELGIRQRLLVAVLTSQTTLPTLGVAVNRTLGHRLERVVFLTGARGRRAPPGMAVVTLGEERPIGHLHLALRHLLEQHGDDFDWFFLVPDTTYTEAHGLARLTGHLSLASAAHLYLGRPQDFIGGEPTPGRYCHGGFGVLLSRMLLQQLRPHLEGCRNDIVSARPDEWLGRCILDATGVGCTGDHEGVHYSHLELSPGEPVQEGDPHFRSALTAHPVRDPVHMYQLHKAFARAELERTYQEIQELQWEIQNTSHLAVDGDQAAAWPVGIPAPSRPASRFEVLRWDYFTEQHAFSCADGSPRCPLRGADRADVADVLGTALEELNRRYHPALRLQKQQLVNGYRRFDPARGMEYTLDLQLEALTPQGGRRPLTRRVQLLRPLSRVEILPVPYVTEASRLTVLLPLAAAERDLAPGFLEAFATAALEPGDAAAALTLLLLYEPRQAQRVAHADVFAPVKAHVAELERRFPGARVPWLSVQTAAPSPLRLMDLLSKKHPLDTLFLLAGPDTVLTPDFLNRCRMHAISGWQAFFPMHFQAFHPAVAPPQGPGPPELGRDTGRFDRQAASEACFYNSDYVAARGRLAAASEQEEELLESLDVYELFLHFSSLHVLRAVEPALLQRYRAQTCSARLSEDLYHRCLQSVLEGLGSRTQLAMLLFEQEQGNST
Y2H matrices (HCV proteins): + | IMAP Y2H IMAP1 (number of IST) [1]: 1 | Interaction with viral protein [2]: NS3
